For one substance, stoichiometry N results are on record in PMC9454918.

The test deals with recombinant goose FST protein (148-amino-acid peptide of goose follistatin, residues 93-240) (goose). Kind of test: SDS-PAGE and Western blot; purified recombinant protein on an SDS-PAGE gel stained with Coomassie blue; Western blot with an anti-His tag antibody. (In general: A western blot detects proteins with antibodies after separation by electrophoresis.)

With “recombinant goose FST protein (148-amino-acid peptide of goose follistatin, residues 93-240) (domain or fragment)”, the stoichiometry N – broadly, the number of molecules, sites or subunits per partner or assembly – came to 2.
